Measured values from patent US20230137139A1, “BIOSYNTHESIS OF CANNABINOIDS AND C[…]” (priority 2020, published 2023).

Experiments:
[1] = tested on: CBCA, THCA, and CBDA production; experiment: In vivo TS activity assay, Example 2 protein engineering of A. niger CBCAS, cultures fed olivetolic acid; type: cell-based, S. cerevisiae; conditions: for average CBCA titer compared with the A. niger positive control / Mean CBCA / Mean CBDA / Mean THCA: secondary screen; for Mean CBCA / Mean CBDA / Mean THCA: olivetolic acid (Table 8); for % CBCA / % CBDA / % THCA: share of terminal cannabinoid product profile
Method in brief: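 CBCA, THCA and CBDA were measured by LC-MS in methanol extracts of yeast cultures expressing mutant A. niger CBCAS. Cultures were induced at 20 °C with galactose and fed 1 mM olivetolic acid daily for 4 days, then buffered with 100 mM sodium citrate pH 5.5. Secondary screen: quadruplicates fed 1 mM olivetolic or divaric acid.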

[2] = tested on: CBCVA, THCVA, and CBDVA production; experiment: In vivo TS activity assay, Example 2 protein engineering of A. niger CBCAS, cultures fed divaric acid; type: cell-based, S. cerevisiae; conditions: for Mean CBCVA / Mean CBDVA / Mean THCVA: S. cerevisiae strains expressing A. niger CBCAS mutants; for Mean CBCVA / Mean CBDVA / Mean THCVA / average CBCVA titer compared with the A. niger positive control: secondary screen; for Mean CBCVA / Mean CBDVA / Mean THCVA / % CBCVA / % CBDVA / % THCVA: fed divaric acid; for % CBCVA / % CBDVA / % THCVA: share of terminal cannabinoid product profile
Method in brief: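 Quantification by LC-MS of methanol-extracted production cultures, strains in quadruplicate. Yeast carrying mutant A. niger CBCAS (MFalpha2 N-terminal and HDEL C-terminal signal peptides) were induced 4 days at 20 °C in YEP+4% galactose fed 1 mM divaric acid, re-dosed every 24 h with 2% galactose and 1 mM divaric acid, after 2 days of dextrose preculture at 30 °C; 100 mM citrate pH 5.5 was then added for 2 more days.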

Molecule | average CBCA titer compared with the A. niger positive control [1] | Mean CBCA [1] [µg/L] | Mean CBDA [1] [µg/L] | Mean THCA [1] [µg/L] | % CBCA [1] [%] | % CBDA [1] [%] | % THCA [1] [%] | Mean CBCVA [2] [µg/L] | Mean CBDVA [2] [µg/L] | Mean THCVA [2] [µg/L] | % CBCVA [2] [%] | % CBDVA [2] [%] | % THCVA [2] [%] | average CBCVA titer compared with the A. niger positive control [2]
t865694 (protein) MGNTTSIAGRDCLISALGGNSALAVFPNELLWTADVHEYNLNLPVTPAAITYPETAEQIAGVVKCASDYDYKVQARSGGHSFGNYGLGGADGAVVVDMKHFTQFSMDDETYEAVIGPGTTLNDVDAELYNNGKRAMAHGVCPTIKTGGHFTIGGLGPTARQWGLALDHVEEVEVVLANSSIVRASNTQNQDVFFAVKGAAANFGIVTEFKVRTEPAPGLAVQYSYTFNLGSTAEKAQFVKDWQSFISAKNLTRQFYNNMVIFDGDIILEGLFFGSKEQYDALGLEDHFAPKNPGNILVLTDWLGMVGHALEDTILKLVGNTPTWFYAKSLGFRQDTLIPSAGIDEFFEYIANHTAGTPAWFVTLSLEGGAINDVAEDATAYAHRDVLFWVQLFMVNPVGPISDTTYEFTDGLYDVLARAVPESVGHAYLGCPDPRMEDAQQKYWRTNLPRLQELKEELDPKNTFHHPQGVMPA | higher | 43506.37 | 9126.46 | 2579.57 | 78.80 | 16.53 | 4.67 | 3069.69 | 0.00 | 1647.98 | 65.07 | 0.00 | 34.93 | 
t865726 (protein) MGNTTSIAGRDCLISALGGNSALAVFPNELLWDADVHEYNLNLPVTPAAITYPETAAQIAGVVKCASDYDYKVQARSGGHSFGNYGLGGADGAVVVDMKHFTQFSMDDETYEAVIGPGTTLNDVDIELYNNGKRAMAHGVCPTIKTGGHFTIGGLGPTARQWGLALDHVEEVEVVLANSSIVRASNTQNQDVFFAVKGAAANFGIVTEFKVRTEPAPGLAVQYSYTFNLGSTAEKAQFVKDWQSFISAKNLTRQFYSNMVIFDGDIILEGLFFGSKEQYDALGLEDHFAPKNPGNILVLTDWLGMVGHALEDTILKLVGNTPTWFYAKSLGFRQDTLIPSAGIDEFFEYIANHTAGTPAWFVTLSLEGGAINDVAEDATAYAHRDVLFWVQLFMVNPVGPISDTTYEFTDGLYDVLARAVPESVGHAYLGCPDPRMEDAQQKYWRTNLPRLQELKEELDPKNTFHHPQGVMPA | higher | 41981.73 | 9985.90 | 2186.01 | 77.52 | 18.44 | 4.04 | 3644.48 | 0.00 | 1740.51 | 67.68 | 0.00 | 32.32 | higher
t878465 (protein, expressed in S. cerevisiae strain) MGNTTSIAGRDCLISALGGNSALAVFPNELLWTADVHEYNLNLPVTPAAITYPETAAQIAGVVKCASDYDYKVQARSGGHSFGNYGLGGADGAVVVDMKHFTQFSMDDETYEAVIGPGTTLNDVDIELYNNGKRAMAHGVCPTIKTGGHFTIGGLGPTARQWGLALDHVEEVEVVLANSSIVRASNTQNQDVFFAVKGAAASFGIVTEFKVRTEPAPGLAVQYSYTFNLGSTAEKAQFVKDWQSFISAKNLTRQFYNNMVIFDGDIILEGLFFGSKEQYDALGLEDHFAPKNPGNILVLTDWLGMVGHALEDTILKLVGNTPTWFYAKSLGFRQDTLIPSAGIDEFFEYIANHTAGTPAWFVTLSLEGGAINDVAEDATAYAHRDVLFWVQLFMVNPVGPISDTTYEFTDGLYDVLARAVPESVGHAYLGCPDPRMEDAQQKYWRTNLPRLQELKEELDPKNTFHHPQGVMAA | higher | 41094.07 | 9826.17 | 2184.77 | 77.38 | 18.50 | 4.11 | 4314.23 | 0.00 | 2144.09 | 66.80 | 0.00 | 33.20 | higher
t865723 (protein) MGNTTSIAGRDCLISALGGNSALAVFPNELLWTADVHEYNLNLPVTPAAITYPETAAQIAGVVKCASDYDYKVQARSGGHSFGNYGLGGADGAVVVDMKHFTQFSMDDETYEAVIGPGTTLNDVDIELWNNGKRAMAHGVCPTIKTGGHFTIGGLGPTARQWGLALDHVEEVEVVLANSSIVRASNTQNQDVFFAVKGAAANFGIVTEFKVRTEPAPGLAVQYSYTFNLGSTAEKAQFVKDWQSFISAKNLTRQFYNNMVIFDGDIILEGLFFGSKEQYDALGLEDHFAPKNPGNILVLTDWLGMVGHALEDTILKLVGNTPTWFYAKSLGFRQDTLIPSAGIDEFFEYIANHTAGTPAWFVTLSLEGGAINDVAEDATAYAHRDVLFWVQLFMVNPVGPISDTTYEFTDGLYDVLARAVPESVGHAYLGCPDPRMEDAQQKYWRTNLPRLQELKEELDPKNTFHHPQGVMPA |  | 22893.08 | 7334.92 | 1788.74 | 71.50 | 22.91 | 5.59 | 4223.36 | 0.00 | 2125.21 | 66.52 | 0.00 | 33.48 | higher
t865720 (protein) MGNTTSIAGRDCLISALGGNSALAVFPNELLWTADVHEYNLNLPVTPAAITYPETAAQIAGVVKCASDYDYKVQARSGGHSFGNYGLGGADGAVVVDMKHFTQFSMDDETYEAVIGPGTTLGDVDKELYNNGKRAMAHGVCPTIKTGGHFTIGGLGPTARQWGLALDHVEEVEVVLANSSIVRASNTQNQDVFFAVKGAAANFGIVTEFKVRTEPAPGLAVQYSYTFNLGSTAEKAQFVKDWQSFISAKNLTRQFYNNMVIFDGDIILEGLFFGSKEQYDALGLEDHFAPKNPGNILVLTDWLGMVGHALEDTILKLVGNTPTWFYAKSLGFRQDTLIPSAGIDEFFEYIANHTAGTPAWFVTLSLEGGAINDVAEDATAYAHRDVLFWVQLFMVNPVGPISDTTYEFTDGLYDVLARAVPESVGHAYLGCPDPRMEDAQQKYWRTNLPRLQELKEELDPKNTFHHPQGVMPA |  | 27895.13 | 7663.58 | 1543.57 | 75.18 | 20.66 | 4.16 | 4276.65 | 0.00 | 2090.51 | 67.17 | 0.00 | 32.83 | higher
t865741 (protein) MGNTTSIAGRDCLISALGGNSALAVFPNELLWTADVHEYNLNLPVTPAAITYPETAAQIAGVVKCASDYDYKVQARSGGHSFGNYGLGGADGAVVVDMKHFTQFSMDDETYEAVIGPGTTLNDVDIELYNNGKRAMAHGVCPTIKTGGHFTIGGLGPTARQWGLALDHVEEVEVVLANSSIVRASNTQNQDVFFAVKGAAANFGIVTEFKVRTEPAPGLAVQYSYTFNLGSTAEKAQFVKDWQSFISAKNLTRQFMNNMVIFDGDIILEGLFFGSKEQYDALGLEDHFAPKNPGNILVLTDWLGMVGHALEDTILKLVGNTPTWFYAKSLGFRQDTLIPSAGIDEFFEYIANHTAGTPAWFVTLSLEGGAINDVAEDATAYAHRDVLFWVQLFMVNPVGPISDTTYEFTDGLYDVLARAVPESVGHAYLGCPDPRMEDAQQKYWRTNLPRLQELKEELDPKNTFHHPQGVMPA |  | 15982.40 | 4419.64 | 957.33 | 74.83 | 20.69 | 4.48 | 4388.54 | 0.00 | 2033.77 | 68.33 | 0.00 | 31.67 | higher
